Assay results taken from patent CN107540747A.

Biological target: 人DLL4分子 (full-length human DLL4 on the cell surface) (human) (UniProt Q9NR61)
Test: indirect immunofluorescence, flow cytometry on CHO/DLL4 cells

Sequence of UniProt Q9NR61 (Q9NR61 27-685): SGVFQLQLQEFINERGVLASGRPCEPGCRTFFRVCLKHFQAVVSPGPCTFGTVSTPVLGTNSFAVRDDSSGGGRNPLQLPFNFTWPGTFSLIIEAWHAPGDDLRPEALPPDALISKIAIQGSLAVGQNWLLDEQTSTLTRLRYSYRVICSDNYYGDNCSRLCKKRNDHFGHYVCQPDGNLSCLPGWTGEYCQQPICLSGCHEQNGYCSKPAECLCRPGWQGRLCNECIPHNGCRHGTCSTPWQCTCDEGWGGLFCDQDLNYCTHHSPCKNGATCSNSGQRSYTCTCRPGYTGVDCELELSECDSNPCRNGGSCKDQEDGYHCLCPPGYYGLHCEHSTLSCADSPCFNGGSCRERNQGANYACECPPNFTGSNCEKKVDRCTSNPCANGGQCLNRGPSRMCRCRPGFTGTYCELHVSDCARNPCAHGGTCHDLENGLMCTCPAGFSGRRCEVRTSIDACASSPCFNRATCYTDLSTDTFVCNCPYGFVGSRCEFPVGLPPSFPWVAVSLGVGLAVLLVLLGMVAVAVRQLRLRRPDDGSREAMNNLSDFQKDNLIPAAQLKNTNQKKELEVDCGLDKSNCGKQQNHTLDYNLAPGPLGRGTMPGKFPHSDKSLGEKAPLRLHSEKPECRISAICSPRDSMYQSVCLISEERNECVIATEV

- 效价 (titer (1:x dilution)): > 10000
B1: 抗人DLL4单克隆抗体6F12 (antibody, mouse IgG2b, V domains shown)
VH: EVHVKQSGPELVKPGASVKMSCKASGYTFTSYLLHWVKQKPGQGLEWIGYIIPYNDGTRYNEKFKGKATLTSDKSSNTAYMELSSLTSEDSAVYYCAREGTGTGAFDYWGQGTSLTVSS
VL: DIVLTQSPAIMSASPGEKVTMTCRASSSVNYMYWYQQKPGSSPRLLIYDTSNLASGVPVRFSGSGSGTSYSLTISRMEAEDAATYYCQQWSSYPYTFGGGTKLEIK
